This is an account of results in article PMC6927765.

Where two headings read alike, the source gives them in different places.

Test in all cases: SPR
The target of assay [1] is CD3 mG1 D265A (not stated | mouse).
Assay [2] concerns the target CD3/CD20 mG1KD D265A bispecific antibody (not stated | mouse).
The target of assay [3] is CD3 mG2a D265A (not stated | mouse).
The target of assay [4] is CD3 mG2a (not stated | mouse).
Assay [5] has as its target CD3/CD20 mG2aH4 bispecific antibody (not stated | mouse).
Assay [6] has as its target CD3 mG2a (not stated | mouse). This is another data set of the same source.
Assay [7] has as its target CD3/CD20 mG2aH4 bispecific antibody (not stated | mouse). This is another data set of the same source.

In the case of “Mouse FcRn (from UniProt Q61559 22-365; P01887 21-119) (receptor)”, the Kd (commonly a measure of binding affinity in units of concentration) was determined as 0.64 µM in assay [1], 0.67 µM in assay [2], 0.31 µM in assay [3] and 0.32 µM in assay [4].
Regarding “Mouse Fc gamma receptor FCGR2 (from UniProt P08101 30-330)”, the dissociation constant (Kd) is 1.57 µM in assay [4] and 1.99 µM in assay [5].

B1: Mouse Fc gamma receptor FCGR4 (receptor)
chain: GLQKAVVNLDPKWVRVLEEDSVTLRCQGTFSPEDNSIKWFHNESLIPHQDANYVIQSARVKDSGMYRCQTALSTISDPVQLEVHMGWLLLQTTKWLFQEGDPIHLRCHSWQNRPVRKVTYLQNGKGKKYFHENSELLIPKATHNDSGSYFCRGLIGHNNKSSASFRISLGDPGSPSMFPPWHQITFCLLIGLLFAIDTVLYFSVRRGLQSPVADYEEPKIQWSKEPQDK
As for B1, the Kd is 0.018 µM in assay [6] and 0.039 µM in assay [7].

B2: Mouse Fc gamma receptor FCGR1 (receptor)
chain: EVVNATKAVITLQPPWVSIFQKENVTLWCEGPHLPGDSSTQWFINGTAVQISTPSYSIPEASFQDSGEYRCQIGSSMPSDPVQLQIHNDWLLLQASRRVLTEGEPLALRCHGWKNKLVYNVVFYRNGKSFQFSSDSEVAILKTNLSHSGIYHCSGTGRHRYTSAGVSITVKELFTTPVLRASVSSPFPEGSLVTLNCETNLLLQRPGLQLHFSFYVGSKILEYRNTSSEYHIARAEREDAGFYWCEVATEDSSVLKRSPELELQVLGPQSSAPVWFHILFYLSVGIMFSLNTVLYVKIHRLQREKKYNLEVPLVSEQGKKANSFQQVRSDGVYEEVTATASQTTPKEAPDGPRSSVGDCGPEQPEPLPPSDSTGAQTSQS
For the molecule B2, the Kd is 0.021 µM in assay [6] and 0.033 µM in assay [7].

B3: Mouse Fc gamma receptor FCGR3 (receptor)
chain: ALPKAVVKLDPPWIQVLKEDMVTLMCEGTHNPGNSSTQWFHNGRSIRSQVQASYTFKATVNDSGEYRCQMEQTRLSDPVDLGVISDWLLLQTPQRVFLEGETITLRCHSWRNKLLNRISFFHNEKSVRYHHYKSNFSIPKANHSHSGDYYCKGSLGSTQHQSKPVTITVQDPATTSSISLVWYHTAFSLVMCLLFAVDTGLYFYVRRNLQTPREYWRKSLSIRKHQAPQDK
As to B3, the Kd in assay [6] was 0.625 µM; in assay [7] it was 1.03 µM.
